# Assay results published in paper PMC6406557, “Lysozyme Aptamer-Functionalized Magnetic Nanoparticles for the Purification of Lysozyme from Chicken Egg White”.
# Columns and labels:
# [1] = biological target: lysozyme from egg white (chicken, UniProt P00698 19-147); test: pull-down from egg white on aptamer-functionalized magnetic nanoparticles, SDS-PAGE; 113 +/- 4.2 mg/g from egg white; Adsorption optimum: 4.0 mg/mL lysozyme, 60 min, pH 9.0, 37 C, 0 M NaCl; egg white: mixed 1:1 with 20 mM PBS pH 7.2-8.0, 10 mg NPs per mL, 37 C, 60 min; details: protein: native
# [2] = biological target: lysozyme (chicken (Gallus gallus)?, UniProt P00698 19-147); test: pull-down on aptamer-functionalized magnetic nanoparticles (adsorption, A280); capacity 460 +/- 3.4 mg/g at pH 9.0, 37 C, 0 M NaCl; bare Fe3O4 218.39 and NH2-Fe3O4 211.35 mg/g, so part is non-aptamer adsorption; Adsorption optimum: 4.0 mg/mL lysozyme, 60 min, pH 9.0, 37 C, 0 M NaCl; egg white: mixed 1:1 with 20 mM PBS pH 7.2-8.0, 10 mg NPs per mL, 37 C, 60 min; details: protein: commercial
# Sequence of lysozyme (P00698 19-147): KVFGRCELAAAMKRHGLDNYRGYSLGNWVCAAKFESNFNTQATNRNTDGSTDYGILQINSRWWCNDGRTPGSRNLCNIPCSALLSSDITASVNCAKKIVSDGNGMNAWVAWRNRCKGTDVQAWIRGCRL
# Sequence of lysozyme from egg white (P00698 19-147): as above
binder,measurement,setting,value
"TTTTTTATCAGGGCTAAAGAGTGC (ssDNA, 5'-aldehyde, coupled as imine to NH2-Fe3O4 nanoparticles) [lysozyme aptamer]",binding result,[1],binds
same,binding result,[2],binds
